Test results reported in publication PMC8766471, “Mutations affecting the N-terminal domains of SHANK3 point to different pathomechanisms in neurodevelopmental disorders” (Scientific Reports, 2022).

B1: Shank3 N-terminus (SPN + Ank domains, residues 1-339), WT, mRFP-tagged [rat] / δ-catenin, GFP-tagged [mouse] (parent complex)
chain 1: MDGPGASAVVVRVGIPDLQQTKCLRLDPTAPVWAAKQRVLCALNHSLQDALNYGLFQPPSRGRAGKFLDEERLLQDYPPNLDTPLPYLEFRYKRRVYAQNLIDDKQFAKLHTKANLKKFMDYVQLHSTDKVARLLDKGLDPNFHDPDSGECPLSLAAQLDNATDLLKVLRNGGAHLDFRTRDGLTAVHCATRQRNAGALTTLLDLGASPDYKDSRGLTPLYHSALGGGDALCCELLLHDHAQLGTTDENGWQEIHQACRFGHVQHLEHLLFYGANMGAQNASGNTALHICALYNQESCARVLLFRGANKDVRNYNSQTAFQVAIIAGNFELAEVIKTHK
chain 2: MFARKQSGAAPFGAMPVPDQPPSASEKNSSLSPGLNTSNGDGSETETTSAILASVKEQELQFERLTRELEAERQIVASQLERCKLGSETGSMSSISSAGEQFHWQTQDGQKDIEDELTTGLELVDSCIRSLQESGILDPQDYSTSERPSLLSQSALQLNSKPEGSFQYPASYHSNQTLALGDTAPSQLPARSTQARAAGQSFSQGTTGRAGHLAGSEPAPPPPPPREPFAPSLGSAFHLPDAPPAAAALYYSSSTLPAPPRGGSPLTTTQGGSPTKLQRGGSAPEGAAYAAPRGSSPKQSPSRLAKSYSTSSPINIVVSSAGLSPIRVTSPPTVQSTISSSPIHQLSSTIGTYATLSPTKRLVHASEQYSKHSQELYATATLQRPGSLAAGSRASYSSQHGHLAPELRALQSPEHHIDPIYEDRVYQKPPMRSLSQSQGDPLPPAHTGTFRTSTAPSSPGVDSVPLQRTGSQHGPQNAAAATFQRASYAAGPASNYADPYRQLQYCASVDSPYSKSGPALPPEGTLARSPSIDSIQKDPREFGWRDPELPEVIQMLQHQFPSVQSNAAAYLQHLCFGDNKIKAEIRRQGGIQLLVDLLDHRMTEVHRSACGALRNLVYGKANDDNKIALKNCGGIPALVRLLRKTTDLEIRELVTGVLWNLSSCDALKMPIIQDALAVLTNAVIIPHSGWENSPLQDDRKIQLHSSQVLRNATGCLRNVSSAGEEARRRMRECDGLTDALLYVIQSALGSSEIDSKTVENCVCILRNLSYRLAAETSQGQHMGTDELDGLLCGETNGKDTESSGCWGKKKKKKKSQDQWDGVGPLPDCAEPPKGIQMLWHPSIVKPYLTLLSECSNPDTLEGAAGALQNLAAGSWKGWAEDVAGMAYALRSLPEGAPCLPQWSVYIRAAVRKEKGLPILVELLRIDNDRVVCAVATALRNMALDVRNKELIGKYAMRDLVHRLPGGNNSNNSGSKAMSDDTVTAVCCTLHEVITKNMENAKALRDAGGIEKLVGISKSKGDKHSPKVVKAASQVLNSMWQYRDLRSLYKKDGWSQYHFVASSSTIERDRQRPYSSSRTPSISPVRVSPNNRSASAPASPREMISLKERKTDYESAGNNATYHGTKGEHTSRKDTMTAQNTGVSTLYRNSYGAPAEDIKQNQVSTQPVPQEPSRKDYETYQPFPNSTRNYDESFFEDQVHHRPPASEYTMHLGLKSTGNYVDFYSAARPYSELNYETSHYPASPDSWV

Variants of: B1
Test: co-immunoprecipitation (mRFP-trap) with Western blot quantification; coexpressed in 293 T cells; three independent experiments; read off a plot

| response | Variant |
| --- | --- |
| ~0.05 | chain 1 MDGPGASAVVVRVGIPDLQQTKCLRLDPTAPVWAAKQRVLCALNHSLQDALNYGLFQPPSRGRAGKFLDEERLLQDYPPNLDTPLPYLEFRYKRRVYAQNLIDDKQFAKLHTKANLKKFMDYVQLHSTDKVARLLDKGLDPNFHDPDSGECPLSLAAQLDNATDLLKVLRNGGAHLDFRTRDGLTAVHCATRQRNAGALTTLLDLGASPDYKDSRGLTPLYHSALGGGDALCCELLLHDHAQLGTTDENCWQEIHQACRFGHVQHLEHLLFYGANMGAQNASGNTALHICALYNQESCARVLLFRGANKDVRNYNSQTAFQVAIIAGNFELAEVIKTHK [chain 1 G250C] |
| ~0.07 | chain 1 MDGPGASAVVVRVGIPDLQQTKCLRLDPTAPVWAAKQRVLCALNHSLQDALNYGLFQPPSRGRAGKFLDEERLLQDYPPNLDTPLPYLEFRYKRRVYAQNLIDDKPFAKLHTKANLKKFMDYVQLHSTDKVARLLDKGLDPNFHDPDSGECPLSLAAQLDNATDLLKVLRNGGAHLDFRTRDGLTAVHCATRQRNAGALTTLLDLGASPDYKDSRGLTPLYHSALGGGDALCCELLLHDHAQLGTTDENGWQEIHQACRFGHVQHLEHLLFYGANMGAQNASGNTALHICALYNQESCARVLLFRGANKDVRNYNSQTAFQVAIIAGNFELAEVIKTHK [chain 1 Q106P] |
| ~0.022 | chain 1 MDGPGASAVVVRVGIPDLQQTKCLRLDPTAPVWAAKQRVLCALNHSLQDALNYGLFQPPSRGRAGKFLDEERLLQDYPPNLDTPLPYLEFRYKRRVYAQNLIDDKQFAKLHTKANLKKFMDYVQLHSTDKVARLLDKGLDANFHDPDSGECPLSLAAQLDNATDLLKVLRNGGAHLDFRTRDGLTAVHCATRQRNAGALTTLLDLGASPDYKDSRGLTPLYHSALGGGDALCCELLLHDHAQLGTTDENGWQEIHQACRFGHVQHLEHLLFYGANMGAQNASGNTALHICALYNQESCARVLLFRGANKDVRNYNSQTAFQVAIIAGNFELAEVIKTHK [chain 1 P141A] |
| ~0.068 | chain 1 MDGPGASAVVVRVGIPDLQQTKCLRLDPTAPVWAAKQRVLCALNHSLQDALNYGLFQPPSRGRAGKFLDEERLLQDYPPNLDTPLPYLEFRYKRRVYAQNLIDDKQFAKLHTKANLKKFMDYVQLHSTDKVARLLDKGLDPNFHDPDSGECPLSLAAQLDNATDLLKVLRNGGAHLDFRTRDGLTAVHCATRQRNAGALTTLLDLGASPDYKDSRGLTPLYHSALGGGDALCCELLLHDHAQLGTTDENGWQEIHQACRFGHVQHLEHLLFCGANMGAQNASGNTALHICALYNQESCARVLLFRGANKDVRNYNSQTAFQVAIIAGNFELAEVIKTHK [chain 1 Y272C] |
| ~0.13 | chain 1 MDGPGASAVVVRVGIPDLQQTKCLRLDPTAPVWAAKQRVLCALNHSLQDALNYGLFQPPSRGRAGKFLGEERLLQDYPPNLDTPLPYLEFRYKRRVYAQNLIDDKQFAKLHTKANLKKFMDYVQLHSTDKVARLLDKGLDPNFHDPDSGECPLSLAAQLDNATDLLKVLRNGGAHLDFRTRDGLTAVHCATRQRNAGALTTLLDLGASPDYKDSRGLTPLYHSALGGGDALCCELLLHDHAQLGTTDENGWQEIHQACRFGHVQHLEHLLFYGANMGAQNASGNTALHICALYNQESCARVLLFRGANKDVRNYNSQTAFQVAIIAGNFELAEVIKTHK [chain 1 D69G] |
| ~0.066 | chain 1 MDGPGASAVVVRVGIPDLQQTKCLRLDPTAPVWAAKQRVLCALNHSLQDALNYGLFQPPSRGRAGKFLDEERLLQDYPPNLDTPLPYLEFRYKRRVYAQNLIDDKQFAKLHTKANLKKFMDYVQLHSTDKVARLLDKGLDPNFHDPDSGECPLSLAAQLDNATDLLKVLRNGGAHLDFRTRDGLTAVHCATRQRNAGALTTLLDLGASPDYKDSRGLTPLYHSALGGGDALCCELLLHDHAQLGTTDENGWQEIHQACRFGHVQHLEHLMFYGANMGAQNASGNTALHICALYNQESCARVLLFRGANKDVRNYNSQTAFQVAIIAGNFELAEVIKTHK [chain 1 L270M] |
| ~0.14 | chain 1 MDGPGASAVVVRVGIPDLQQTKCLRLDPTAPVWAAKQRVLCALNHSLQDALNYGLFQPPSRGRAGKFLDEERLLQDYPPNLDTPLPYLEFRYKRRVYAQNLIDDKQFAKLHTKANLKKFMDYVQLHSTDKVARLLDKGLDPNFHDPDSGECPLSLAAQLDNATDLLKVLRNGGAHLDFRTRDGLTAVHCATRQRNAGALTTLLDLGASPDYKDSRGLTPLYHSALGGGDALCCELLLHDHAQLGTTDENGWQEIHQACRFGHVQHLEHLLFYGANMGAQNASGNTALHICALYNQESCARVLLFRGANKDVRNYNSRTAFQVAIIAGNFELAEVIKTHK [chain 1 Q317R] |
| ~0.05 | chain 1 MDGPGASAVVVRVGIPDLQQTKCLRLDPTAPVWAAKQRVLCALNHSLQDALNYGLFQPPSRGRAGKFLDEERLLQDYPPNLDTPLPYLEFRYKRRVYAQNLIDDKQFAKLHTKANLKKFMDYVQLHSTDKVARLLDKGLDPNFHDPDSGECPLSLAAQLDNATDLLKVLRNGGAHLDFRTRDGLTAVHCATRQRNAGALTTLLDLGASPDYKDSRGLTPLYHSALGGGDALCCELLLHDHAQLGTTDENGWQEIHHACRFGHVQHLEHLLFYGANMGAQNASGNTALHICALYNQESCARVLLFRGANKDVRNYNSQTAFQVAIIAGNFELAEVIKTHK [chain 1 Q256H] |
| ~0.092 | chain 1 MDGPGASAVVVRVGIPDLQQTKCLRLDPTAPVWAAKQRVLCALNHSLQDALNYGLFQPPSRGRAGKFLDEERLLQDYPPNLDTPLPYLEFRYKRRVYAQNLIDDKQFAKLHTKANLKKFMDYVQLHSTDKVARLLDKGLDPNFHDPDSGECPLSLAAQLDNATDLLKVLRNGGAHLDFRTRDGLTAVHCATRQRNAGALTTLLDLGASPDYKDSRGLTPLYHSALGGGDALCCELLLHDHAQLGTTDENGWQEIHQACRFGHVQHLEHLLFYGANMGAQNASGNTALHICALYNQESCARVLLFRGANKDVRNYNSQTAFQVAIIAGNFELAEVIKSHK [chain 1 T337S] |
